In patent US20160017348A1:

Biological target: H3K4AK9me2 peptide (UniProt P59226)
Experiment: ITC; reference is the H3K9me2 peptide

fold weaker affinity than with the H3K9me2 peptide: 30 fold
B1: SHH1 SAWADEE domain (residues 125-258) (protein)
chain: ADLAFEAKSARDYAWYDVSSFLTYRVLRTGELEVRVRFSGFDNRHDEWVNVKTSVRERSIPVEPSECGRVNVGDLLLCFQEREDQALYCDGHVLNIKRGIHDHARCNCVFLVRYELDNTEESLGLERICRRPEE
